Experimental data: patent publication US20140308271A1 (GLENMARK PHARMACEUTICALS S A, published 2014)
Substitutions are numbered along the chain they refer to. Values belong to the binder of their own block, whether it stands above or below them.

Experiments:
[1] = target: extracellular part of mouse (mus musculus) TL1A protein (mouse); experiment: ELISA on coated extracellular part of TL1A (2 µg/mL), dose dilution of chimeric 5G6, HRP anti-human IgG
[2] = target: T1, recombinant human TL1A-his (processed secreted human TL1A with an N-terminal his-tag) (human, UniProt O95150 72-251); experiment: SPR (BIAcore 2000), antibody captured on protein-A, his-tagged human TL1A as analyte
T1 construct: also called recombinant histidine tagged human TL1A; histidine-tagged human TL1A
T1 sequence: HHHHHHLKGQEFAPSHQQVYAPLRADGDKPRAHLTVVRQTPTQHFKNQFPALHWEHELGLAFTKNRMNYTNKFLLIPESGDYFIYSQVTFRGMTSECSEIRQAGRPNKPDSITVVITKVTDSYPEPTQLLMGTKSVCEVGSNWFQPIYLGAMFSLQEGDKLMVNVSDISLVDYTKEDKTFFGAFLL
Description: Kinetic binding affinity constants (KD) were measured on protein-A captured antibody using recombinant histidine tagged TL1A as analyte. Measurements were conducted on a BIAcore 2000 (GE Healthcare—BIAcore, GE Healthcare Europe GmbH, Glattbrugg, Switzerland) at room temperature, and analyzed with the BiaEvaluation software (BIAcore; v4.1. GE Healthcare Europe GmbH).
Following this capture step, the recombinant histidine tagged human TL1A was injected at different concentrations (1.25 to 125 nM) on the flow-path 1 and 2 (flow-path 1 being used as reference) at a 30 μl/min flow rate. After each binding event, surface was regenerated with glycine buffer pH 1.5 injected for 20 sec (30 μL/min).
Measurements (sensorgram: fc2-fc1) were best fitted with a 1:1 analyte model without mass transfer. To account for the experimental variations in protein-A captured antibody at the beginning of each measurement, the Rmax value was set to local in all fits. Dissociation times were of at least 300-600 seconds. Measurements were performed in duplicate and included zero-concentration samples for referencing. The Chi2 value represents the sum of squared differences between the experimental data and reference data at each point; while the plots of residuals indicate the difference between the experimental and reference data for each point in the fit. Both Chi2 and residual values were used to evaluate the quality of a fit between the experimental data and individual binding models.

[3] = target: T2, extracellular part of cynomologus monkey (macaca fascicularis) TL1A protein (cynomolgus monkey (macaca fascicularis), UniProt O95150 57-251 (human entry)); experiment: ELISA on coated extracellular part of TL1A (2 µg/mL), dose dilution of chimeric 5G6, HRP anti-human IgG
T2 construct: also called cyno TL1A; cynomologus monkey TL1A
T2 chain: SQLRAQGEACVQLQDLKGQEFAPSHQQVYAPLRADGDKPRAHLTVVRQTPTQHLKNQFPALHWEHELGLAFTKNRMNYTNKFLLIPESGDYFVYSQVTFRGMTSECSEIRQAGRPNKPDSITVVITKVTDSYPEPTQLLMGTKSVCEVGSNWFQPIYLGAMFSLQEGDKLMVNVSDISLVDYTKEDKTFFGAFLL
Description: (§1) The reactivity of the parental 5G6 antibody (produced as a chimeric antibody with Human Fc) on the extracellular part of TL1A from diverse species was tested by ELISA. The extracellular part of TL1A protein corresponding to human (homo sapiens), rat (ratus norvegicus), mouse (mus musculus) and cynomologus monkey (macaca fascicularis) sequences (SEQ ID NOS: 38, 39, 40 and 41, respectively) was immobilized on high binding 96-well plates (Costar, USA; distributor VWR AG, Nyon, Switzerland) overnight at a concentration of 2 μg/mL at 4° C. in PBS. Plates were blocked with 2% BSA albumin (BSA, Sigma-Aldrich Chemie, Buchs, Switzerland) at RT for one hour. The blocking solution was removed and a dose dilution of 5G6 antibody was applied to the plates. Plates were incubated at RT for 60 minutes, washed six times with PBS 0.01% Tween-20 and the TMB substrate (Bio-rad Laboratories AG, Reinach, Switzerland) was added to the plates. […] The plates were read for absorbance at 450 nm by a microplate reader (Biotek, USA; distributor: WITTEC AG, Littau, Switzerland).

[4] = target: T3, extracellular part of rat (ratus norvegicus) TL1A protein (rat, UniProt Q8K3Y7 61-252); experiment: as above
T3 construct: also called rat TL1A
T3 sequence: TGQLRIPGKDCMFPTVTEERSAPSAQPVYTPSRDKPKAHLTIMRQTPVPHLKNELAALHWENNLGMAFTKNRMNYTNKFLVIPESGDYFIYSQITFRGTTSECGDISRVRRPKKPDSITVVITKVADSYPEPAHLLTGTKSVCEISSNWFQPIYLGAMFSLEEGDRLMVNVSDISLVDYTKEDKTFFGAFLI
Description: as §1

[5] = target: T4, extracellular part of human (homo sapiens) TL1A protein (human, UniProt O95150 57-251); experiment: as above
T4 construct: also called human TL1A
T4 sequence: T2 chain with L13F, D15A, L54F, V93I
Description: as §1

B1: 5G6 chimeric antibody (murine 5G6 variable domains fused to human IgG1 heavy chain constant domains and a human kappa constant domain) (antibody, V domains shown)
VH: QVQLQQPGSVLVRPGASVKVSCKASGYTFTSSWMHWAKQRPGQGLEWIGEIHPNSGGTNYNEKFKGKATLTVDTSSSTAYVDLSSLTSEDSAVYYCARGDYYGYVSWFAYWGQGTLVTVSS
VL: DIQMNQSPSSLSASLGDTITITCHASQNINVLLSWYQQKPGNIPKLLIYKASNLHTGVPSRFSGSGSGTGFTFTISSLQPEDIATYYCQQGQSYPYTFGGGTKLEIKR
notes: Human IGHG1 / kappa chimera; also called Chimera; parental 5G6
EC50 (read off the curve) [1]: 20 ng/mL
Kd [2]: 0.728 nM
EC50 (read off the curve) [3]: ~3 ng/mL
EC50 (read off the curve) [4]: ~8 ng/mL
EC50 (read off the curve) [5]: ~3 ng/mL

B2: VH4/VL1 humanized 5G6 antibody (antibody, human IgG1, kappa, V domains shown)
VH: QVQLVQSGAEVKKPGASVKVSCKASGYTFTSSWMHWARQAPGQGLEWIGEIHPNSGGTNYAQKFQGRVTMTVDTSISTAYMELSRLRSDDTAVYYCARGDYYGYVSWFAYWGQGTLVTVSS
VL: B1 VL with N5T, L15V, T18R, I19V, H24Q, S34N, N42K, I43A, G70D, G100Q
Kd [2]: 0.681 nM

Other lines, results leading:

Kd [2]: 0.857 nM
B3: VH2/VL2 humanized 5G6 antibody (antibody, human IgG1, kappa, V domains shown)
VH: B2 VH with V68A, M70L, I76S
VL: B1 VL with L15V, T18R, I19V, H24Q, N42K, I43A, G70D, G100Q

Kd [2]: 0.249 nM
B4: VH3/VL1 humanized 5G6 antibody (antibody, human IgG1, kappa, V domains shown)
VH: B2 VH with V68A
VL: B1 VL with N5T, L15V, T18R, I19V, H24Q, S34N, N42K, I43A, G70D, G100Q
